Experimental data taken from patent US20180223372A1, “IDENTIFICATION OF PREDICTIVE BIOMARKERS ASSOCIATED WITH WNT PATHWAY INHIBITORS” (OncoMed Pharmaceutical, Inc., priority 2015, published 2018).

Assays:
[1] = tested on: genes in the Wnt, Notch, and stem cell pathways; Wnt pathway target genes including AXIN2 and LEF1; assay: pharmacodynamics (PD) biomarker analysis; type: in vivo; conditions: data not shown
Procedure: In addition, a pharmacodynamics (PD) biomarker analysis was performed and confirmed inhibition of genes in the Wnt. Notch, and stem cell pathways by treatment with OMP-18R5.

OMP-LU45 lung tumor = assay: OMP-LU45 NSCLC xenograft, OMP-18R5 vs control antibody; type: in vivo, NOD/SCID mice; conditions: OMP-LU45 adenocarcinoma; 15-20 mg/kg intraperitoneally weekly; tumor volume vs control antibody
Source text: (§1) The non-small cell lung cancer (NSCLC) tumor xenograft models OMP-LU02, OMP-LU11, OMP-LU24, OMP-LU25, OMP-LU33, OMP-LU45, and OMP-LU56 (and other OncoMed models described herein) were established at OncoMed Pharmaceuticals from minimally passaged, patient-derived tumor specimens. The tumor specimens were examined by a pathologist and classified as lung tumors. OncoMed relies on these classifications unless further analyses are done on any specific tumor and a reclassification is deemed necessary. […] Tumor-bearing mice were randomized into groups (n=8-10 per group) and treated with control antibody or anti-FZD antibody OMP-18R5. The antibodies were dosed at 15-20 mg/kg and were administered intraperitoneally on a weekly basis. […] Data are expressed as mean±S.E.M.
(§2) To determine if a tumor was responsive to anti-FZD antibody OMP-18R5, tumor volume data from mice treated with the control antibody were compared with tumor volume data from mice treated with OMP-18R5.

OMP-LU24 lung tumor = assay: OMP-LU24 NSCLC xenograft, OMP-18R5 vs control antibody; type: in vivo, NOD/SCID mice; conditions: OMP-LU24 squamous cell carcinoma; 15-20 mg/kg intraperitoneally weekly; tumor volume vs control antibody
Source text: as §1, §2

OMP-LU02 lung tumor = assay: OMP-LU02 NSCLC xenograft, OMP-18R5 vs control antibody; type: in vivo, NOD/SCID mice; conditions: OMP-LU02 adenocarcinoma; 15-20 mg/kg intraperitoneally weekly; tumor volume vs control antibody
Source text: as §1, §2

OMP-LU11 lung tumor = assay: OMP-LU11 NSCLC xenograft, OMP-18R5 vs control antibody; type: in vivo, NOD/SCID mice; conditions: OMP-LU11 squamous cell carcinoma; 15-20 mg/kg intraperitoneally weekly; tumor volume vs control antibody
Source text: as §1, §2

OMP-LU25 lung tumor = assay: OMP-LU25 NSCLC xenograft, OMP-18R5 vs control antibody; type: in vivo, NOD/SCID mice; conditions: OMP-LU25 large cell carcinoma; 15-20 mg/kg intraperitoneally weekly; tumor volume vs control antibody
Source text: as §1, §2

OMP-LU56 lung tumor = assay: OMP-LU56 NSCLC xenograft, OMP-18R5 vs control antibody; type: in vivo, NOD/SCID mice; conditions: OMP-LU56 carcinoma; 15-20 mg/kg intraperitoneally weekly; tumor volume vs control antibody
Source text: as §1, §2

OMP-LU33 lung tumor = assay: OMP-LU33 NSCLC xenograft, OMP-18R5 vs control antibody; type: in vivo, NOD/SCID mice; conditions: OMP-LU33 carcinoma; 15-20 mg/kg intraperitoneally weekly; tumor volume vs control antibody
Source text: as §1, §2

B1: OMP-18R5: anti-FZD IgG2 antibody binding FZD1, FZD2, FZD5, FZD7, FZD8; ATCC deposit PTA-9541; heavy/light chain SEQ ID NO:11 and 12 (antibody)
heavy: EVQLVESGGGLVQPGGSLRLSCAASGFTFSHYTLSWVRQAPGKGLEWVSVISGDGSYTYYADSVKGRFTISSDNSKNTLYLQMNSLRAEDTAVYYCARNFIKYVFANWGQGTLVTVSSASTKGPSVFPLAPCSRSTSESTAALGCLVKDYFPEPVTVSWNSGALTSGVHTFPAVLQSSGLYSLSSVVTVPSSNFGTQTYTCNVDHKPSNTKVDKTVERKCCVECPPCPAPPVAGPSVFLFPPKPKDTLMISRTPEVTCVVVDVSHEDPEVQFNWYVDGVEVHNAKTKPREEQFNSTFRVVSVLTVVHQDWLNGKEYKCKVSNKGLPAPIEKTISKTKGQPREPQVYTLPPSREEMTKNQVSLTCLVKGFYPSDIAVEWESNGQPENNYKTTPPMLDSDGSFFLYSKLTVDKSRWQQGNVFSCSVMHEALHNHYTQKSLSLSPGK
light: DIELTQPPSVSVAPGQTARISCSGDNIGSFYVHWYQQKPGQAPVLVIYDKSNRPSGIPERFSGSNSGNTATLTISGTQAEDEADYYCQSYANTLSLVFGGGTKLTVLGQPKAAPSVTLFPPSSEELQANKATLVCLISDFYPGAVTVAWKADSSPVKAGVETTTPSKQSNNKYAASSYLSLTPEQWKSHRSYSCQVTHEGSTVEKTVAPTECS
modifications: Heavy chain amino acid sequence; Light chain amino acid sequence
With B1 the “Wnt pathway target genes including AXIN2 and LEF1” value ([1]; OMP-18R5 as a single agent) was “down-regulated significantly”, the “genes in the Wnt, Notch, and stem cell pathways” value ([1]; treatment with OMP-18R5) was “inhibition” and the Classification (OMP-LU45 lung tumor) was “Non-responder”. The Classification (OMP-LU24 lung tumor) was “Responder”, the Classification (OMP-LU02 lung tumor) was “Non-responder” and the Classification (OMP-LU11 lung tumor) was “Responder”. The Classification (OMP-LU25 lung tumor) was “Non-responder”, the Classification (OMP-LU56 lung tumor) was “Non-responder” and the Classification (OMP-LU33 lung tumor) was “Responder”.
